From patent US20130133089A1 (MEDICAL RESEARCH INFRASTRUCTURE AND HEALTH SERVICES FUND OF …, published 2013)
Values joined by “and” are separate entries in the source; they are usually repeats but may differ in a detail not shown here. Equal values may be shown once.

Experiments:
[1] = target: T1, Recombinant human leptin binding domain (hLBD) (human, UniProt P48357 428-635, biotinylated with Sulfo-NHS-LC-Biotin in the yeast display assays; not labelled when immobilized in the plate binding assay); assay: yeast display, flow cytometry titration with biotinylated hLBD (FIG. 4A)
T1 construct: CRH2 sub-domain of the leptin receptor; Prepared in the applicants' laboratory; also called soluble human leptin receptor; CHR2
T1 sequence (looked up): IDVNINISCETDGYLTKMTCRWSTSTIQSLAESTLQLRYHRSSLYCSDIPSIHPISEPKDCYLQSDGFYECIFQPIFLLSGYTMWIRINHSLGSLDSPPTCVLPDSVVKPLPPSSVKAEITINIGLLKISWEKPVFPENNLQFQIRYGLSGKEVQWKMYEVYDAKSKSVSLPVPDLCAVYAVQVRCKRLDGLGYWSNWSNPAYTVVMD
Excerpt: (§1) Those 7 mouse leptin mutants were selected for preparation of respectively mutated leptins expressed in E. coli.

[2] = target: T1, Recombinant human leptin binding domain …; assay: yeast display, flow cytometry titration with biotinylated hLBD (FIG. 4B)
Excerpt: as §1

[3] = target: long form of human leptin receptor (hLEPR) on BAF/3 or H-49 (HEK-293) cells (human), P48357; assay: cell-based or functional assay
long form of human leptin receptor (hLEPR) on BAF/3 or H-49 (HEK-293) cells (human), P48357, sequence (P48357 22-1165): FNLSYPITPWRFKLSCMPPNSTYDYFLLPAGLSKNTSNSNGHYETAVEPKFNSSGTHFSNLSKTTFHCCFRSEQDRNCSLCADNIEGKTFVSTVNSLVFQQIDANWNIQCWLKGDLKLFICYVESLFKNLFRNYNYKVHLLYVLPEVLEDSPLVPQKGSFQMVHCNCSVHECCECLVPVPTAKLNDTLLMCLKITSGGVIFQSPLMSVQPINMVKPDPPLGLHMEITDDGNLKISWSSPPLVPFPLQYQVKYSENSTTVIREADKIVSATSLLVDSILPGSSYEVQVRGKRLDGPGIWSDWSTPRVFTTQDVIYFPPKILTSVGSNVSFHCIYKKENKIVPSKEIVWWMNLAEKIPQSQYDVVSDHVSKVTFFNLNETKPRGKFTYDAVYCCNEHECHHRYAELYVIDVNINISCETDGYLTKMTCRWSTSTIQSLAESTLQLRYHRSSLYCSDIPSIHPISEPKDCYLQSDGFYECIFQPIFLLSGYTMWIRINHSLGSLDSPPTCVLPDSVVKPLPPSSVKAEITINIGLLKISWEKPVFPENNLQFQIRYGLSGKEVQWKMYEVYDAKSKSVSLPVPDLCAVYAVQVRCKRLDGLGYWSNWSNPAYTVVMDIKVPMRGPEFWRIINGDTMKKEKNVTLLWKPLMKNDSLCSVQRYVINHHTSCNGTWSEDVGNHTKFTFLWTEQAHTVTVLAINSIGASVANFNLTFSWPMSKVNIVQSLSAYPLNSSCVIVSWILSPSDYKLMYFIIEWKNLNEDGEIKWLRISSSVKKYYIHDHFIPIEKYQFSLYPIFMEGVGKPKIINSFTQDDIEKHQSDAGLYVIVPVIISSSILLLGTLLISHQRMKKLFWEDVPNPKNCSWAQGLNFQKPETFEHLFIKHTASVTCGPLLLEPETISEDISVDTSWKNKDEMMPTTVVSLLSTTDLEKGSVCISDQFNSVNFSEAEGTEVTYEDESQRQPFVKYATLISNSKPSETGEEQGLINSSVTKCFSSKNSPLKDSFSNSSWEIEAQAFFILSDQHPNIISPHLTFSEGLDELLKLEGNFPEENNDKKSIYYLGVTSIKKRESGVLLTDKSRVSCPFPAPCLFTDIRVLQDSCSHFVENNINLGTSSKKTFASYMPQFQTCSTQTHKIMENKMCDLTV

B1: wild type mouse leptin displayed on yeast as Aga2p fusion (ligand, UniProt P41160 22-167, looked up, not shown: large carriers; small tags and cut ends)
chain: VPIQKVQDDTKTLIKTIVTRINDISHTQSVSAKQRVTGLDFIPGLHPILSLSKMDQTLAVYQQVLTSLPSQNVLQIANDLENLRDLLHLLAFSKSCSLPQTSGLQKPESLDGVLEASLYSTEVVALSRLQGSLQDILQQLDVSPEC
notes: mature; also called mlep wt; mlep, wt1
[1]
  Kd: 159 nM and 115 nM
[2]
  Kd: 95 nM and 95.7 nM

B2: pegylated superactive mouse leptin antagonist (PEG-SMLA), P41160 22-167 (ligand)
chain: VPIQKVQDDTKTLIKTLVTRINLISHTQSVSAKQRVTGAAAIPGLHPILSLSKMDQTLAVYQQVLTSLPSQNVLQIANDLENLRDLLHLLAFSKSCSLPQTSGLQKPESLDGVLEASLYSTEVVALSRLQGSLQDILQQVDLSPGC
modifications: here or on the partner: mPEG-propionyl-ALD 20 kDa, preferentially on the N-terminal amino group (85% monopegylated, ~9% double pegylated)
[3]
  biological activity in H-49 cells: fold reduction as compared to the non-pegylated SMLA: 9 fold

B3: yeast-displayed mouse leptin clone H19 (D23G, T37A, G44D) (ligand, UniProt P41160 22-167, looked up, not shown: large carriers; small tags and cut ends)
chain: VPIQKVQDDTKTLIKTIVTRINGISHTQSVSAKQRVAGLDFIPDLHPILSLSKMDQTLAVYQQVLTSLPSQNVLQIANDLENLRDLLHLLAFSKSCSLPQTSGLQKPESLDGVLEASLYSTEVVALSRLQGSLQDILQQLDVSPEC
notes: mature
[1]
  Bmax: 968 MFI
  Kd: 104 nM
[2]
  Bmax: 966 MFI
  Kd: 68.4 nM

B4: yeast-displayed mouse leptin clone H17 (S109F) (ligand, UniProt P41160 22-167, looked up, not shown: large carriers; small tags and cut ends)
chain: VPIQKVQDDTKTLIKTIVTRINDISHTQSVSAKQRVTGLDFIPGLHPILSLSKMDQTLAVYQQVLTSLPSQNVLQIANDLENLRDLLHLLAFSKSCSLPQTSGLQKPEFLDGVLEASLYSTEVVALSRLQGSLQDILQQLDVSPEC
notes: mature
[1]
  Bmax: 3600 MFI
  Kd: 620 nM

B5: yeast-displayed mouse leptin clone H6 (D23G, V30D, Y119H) (ligand, UniProt P41160 22-167, looked up, not shown: large carriers; small tags and cut ends)
chain: VPIQKVQDDTKTLIKTIVTRINGISHTQSDSAKQRVTGLDFIPGLHPILSLSKMDQTLAVYQQVLTSLPSQNVLQIANDLENLRDLLHLLAFSKSCSLPQTSGLQKPESLDGVLEASLHSTEVVALSRLQGSLQDILQQLDVSPEC
notes: mature
[2]
  Bmax: 1290 MFI
  Kd: 99.1 nM

B6: yeast-displayed mouse leptin clone L1 (D23N, Q34L, L114P) (ligand, UniProt P41160 22-167, looked up, not shown: large carriers; small tags and cut ends)
chain: VPIQKVQDDTKTLIKTIVTRINNISHTQSVSAKLRVTGLDFIPGLHPILSLSKMDQTLAVYQQVLTSLPSQNVLQIANDLENLRDLLHLLAFSKSCSLPQTSGLQKPESLDGVPEASLYSTEVVALSRLQGSLQDILQQLDVSPEC
notes: mature
[2]
  Bmax: 1680 MFI
  Kd: 158 nM

B7: yeast-displayed mouse leptin clone H22 (T12I) (ligand, UniProt P41160 22-167, looked up, not shown: large carriers; small tags and cut ends)
chain: VPIQKVQDDTKILIKTIVTRINDISHTQSVSAKQRVTGLDFIPGLHPILSLSKMDQTLAVYQQVLTSLPSQNVLQIANDLENLRDLLHLLAFSKSCSLPQTSGLQKPESLDGVLEASLYSTEVVALSRLQGSLQDILQQLDVSPEC
notes: mature
[1]
  Bmax: 852 MFI
  Kd: 122 nM
[2]
  Bmax: 719 MFI
  Kd: 82.3 nM

B8: yeast-displayed mouse leptin clone H16 (D23G, G112S) (ligand, UniProt P41160 22-167, looked up, not shown: large carriers; small tags and cut ends)
chain: VPIQKVQDDTKTLIKTIVTRINGISHTQSVSAKQRVTGLDFIPGLHPILSLSKMDQTLAVYQQVLTSLPSQNVLQIANDLENLRDLLHLLAFSKSCSLPQTSGLQKPESLDSVLEASLYSTEVVALSRLQGSLQDILQQLDVSPEC
notes: mature
[2]
  Bmax: 550 MFI
  Kd: 44 nM

B9: yeast-displayed mouse leptin clone H12 (S97Y) (ligand, UniProt P41160 22-167, looked up, not shown: large carriers; small tags and cut ends)
chain: VPIQKVQDDTKTLIKTIVTRINDISHTQSVSAKQRVTGLDFIPGLHPILSLSKMDQTLAVYQQVLTSLPSQNVLQIANDLENLRDLLHLLAFSKSCYLPQTSGLQKPESLDGVLEASLYSTEVVALSRLQGSLQDILQQLDVSPEC
notes: mature; also called H20; H24
[1]
  Bmax: 961 MFI
  Kd: 130 nM
[2]
  Bmax: 785 MFI
  Kd: 103 nM

B10: yeast-displayed mouse leptin clone H3 (D23G, L68M, S97F, S132Y) (ligand, UniProt P41160 22-167, looked up, not shown: large carriers; small tags and cut ends)
chain: VPIQKVQDDTKTLIKTIVTRINGISHTQSVSAKQRVTGLDFIPGLHPILSLSKMDQTLAVYQQVLTSMPSQNVLQIANDLENLRDLLHLLAFSKSCFLPQTSGLQKPESLDGVLEASLYSTEVVALSRLQGYLQDILQQLDVSPEC
notes: mature; also called H15; H4
[1]
  Bmax: 1450 MFI
  Kd: 91.7 nM
[2]
  Bmax: 1350 MFI
  Kd: 92.8 nM

B11: yeast-displayed mouse leptin clone H2 (A125T, S132Y) (ligand, UniProt P41160 22-167, looked up, not shown: large carriers; small tags and cut ends)
chain: VPIQKVQDDTKTLIKTIVTRINDISHTQSVSAKQRVTGLDFIPGLHPILSLSKMDQTLAVYQQVLTSLPSQNVLQIANDLENLRDLLHLLAFSKSCSLPQTSGLQKPESLDGVLEASLYSTEVVTLSRLQGYLQDILQQLDVSPEC
notes: mature
[2]
  Bmax: 2570 MFI
  Kd: 243 nM

B12: yeast-displayed mouse leptin clone H7 (K11R, Q34R, T37A, F92C, S97Y, I136V) (ligand, UniProt P41160 22-167, looked up, not shown: large carriers; small tags and cut ends)
chain: VPIQKVQDDTRTLIKTIVTRINDISHTQSVSAKRRVAGLDFIPGLHPILSLSKMDQTLAVYQQVLTSLPSQNVLQIANDLENLRDLLHLLACSKSCYLPQTSGLQKPESLDGVLEASLYSTEVVALSRLQGSLQDVLQQLDVSPEC
notes: mature; also called H18; H27
[1]
  Bmax: 1590 MFI
  Kd: 126 nM
[2]
  Bmax: 1140 MFI
  Kd: 83.5 nM
